Target: T1, Flag-tagged FANCJ N734H (human, UniProt Q9BX63 1-1249, N734H)
T1 construct: FANCJ (BRIP1), human, full-length; missense variant found in uterine endometrial carcinoma; source: HEK 293T, transiently transfected, purified (anti-Flag M2 agarose)
T1 sequence (looked up): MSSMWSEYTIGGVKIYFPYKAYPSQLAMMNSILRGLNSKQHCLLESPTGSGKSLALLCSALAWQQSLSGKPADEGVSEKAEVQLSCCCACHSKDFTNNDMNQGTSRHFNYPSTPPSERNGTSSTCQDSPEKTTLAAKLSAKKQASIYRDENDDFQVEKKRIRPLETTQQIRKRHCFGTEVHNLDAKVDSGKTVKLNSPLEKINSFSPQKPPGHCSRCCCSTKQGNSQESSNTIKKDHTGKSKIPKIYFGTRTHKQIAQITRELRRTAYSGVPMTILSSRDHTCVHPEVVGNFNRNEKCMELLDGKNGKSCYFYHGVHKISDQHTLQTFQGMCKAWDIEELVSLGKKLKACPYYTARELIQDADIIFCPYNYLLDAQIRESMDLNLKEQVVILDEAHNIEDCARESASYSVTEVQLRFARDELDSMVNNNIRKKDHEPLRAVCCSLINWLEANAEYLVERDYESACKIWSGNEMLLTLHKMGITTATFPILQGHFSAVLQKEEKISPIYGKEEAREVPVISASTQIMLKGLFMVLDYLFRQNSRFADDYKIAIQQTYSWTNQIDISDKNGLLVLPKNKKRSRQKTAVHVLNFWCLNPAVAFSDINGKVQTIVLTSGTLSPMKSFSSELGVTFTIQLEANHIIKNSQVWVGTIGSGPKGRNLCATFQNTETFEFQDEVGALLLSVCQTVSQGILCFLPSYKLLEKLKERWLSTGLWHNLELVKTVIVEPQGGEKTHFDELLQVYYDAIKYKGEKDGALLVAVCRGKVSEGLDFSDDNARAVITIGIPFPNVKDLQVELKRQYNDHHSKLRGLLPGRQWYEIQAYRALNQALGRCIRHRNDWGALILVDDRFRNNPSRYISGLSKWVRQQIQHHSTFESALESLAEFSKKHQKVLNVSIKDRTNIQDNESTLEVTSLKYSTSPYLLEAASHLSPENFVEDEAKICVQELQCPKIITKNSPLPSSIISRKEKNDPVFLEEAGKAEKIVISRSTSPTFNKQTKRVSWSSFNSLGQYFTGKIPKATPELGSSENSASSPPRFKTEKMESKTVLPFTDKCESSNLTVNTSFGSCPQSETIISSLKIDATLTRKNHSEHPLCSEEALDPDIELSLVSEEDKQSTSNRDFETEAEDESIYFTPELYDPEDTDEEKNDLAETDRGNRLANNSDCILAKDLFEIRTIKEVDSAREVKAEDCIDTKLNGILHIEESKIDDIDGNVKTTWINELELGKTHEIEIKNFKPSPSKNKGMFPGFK
Assay: pull-down; GST-SepB α-helix bundle (0.5 µg) on Glutathione Sepharose 4B beads, purified Flag-FANCJ (0.5 µg) added; 25 mM Tris-HCl pH 7.5, 150 mM NaCl, 0.1% Triton X-100, 4 °C; washes with 300 mM NaCl, 1% Triton X-100; Western blot
Conditions: both partners purified

B1: GST-SepB α-helix bundle WT (domain or fragment, human, UniProt O75717 718-824, looked up)
chain: IATEKGQMEEQFWRSVIFHNHLDYLAKNGYEYEESTKNQATKEQQELLMKMLALSCKLEREFRCVELADLMTQNAVNLAIKYASRSRKLILAQKLSELAVEKAAELT
notes: AND-1 (WDHD1), human, α-helix bundle of the SepB domain, amino-acid residues 718-824; Cloned into pGEX-2T; also called GST-SepB α-helix bundle chimeric protein; source: E. coli Rosetta pLysS (DE3), purified (Glutathione Sepharose 4B)
Does B1 bind?
Result: binds
